The values that follow come from CN107417788A (INST PASTEUR SHANGHAI CAS, dated 2017).

For this assay, the target named is T1, 生物素化Zaire GP蛋白 (pIRES-Zaire GP-BirA-FLAG SP-) (Ebola virus (EBOV) subtype Zaire, UniProt Q05320 33-676).
T1 construct: range 33-676; also called Zaire-GP-Biotin; Zaire-GP-BirA细胞裂解液
T1 sequence: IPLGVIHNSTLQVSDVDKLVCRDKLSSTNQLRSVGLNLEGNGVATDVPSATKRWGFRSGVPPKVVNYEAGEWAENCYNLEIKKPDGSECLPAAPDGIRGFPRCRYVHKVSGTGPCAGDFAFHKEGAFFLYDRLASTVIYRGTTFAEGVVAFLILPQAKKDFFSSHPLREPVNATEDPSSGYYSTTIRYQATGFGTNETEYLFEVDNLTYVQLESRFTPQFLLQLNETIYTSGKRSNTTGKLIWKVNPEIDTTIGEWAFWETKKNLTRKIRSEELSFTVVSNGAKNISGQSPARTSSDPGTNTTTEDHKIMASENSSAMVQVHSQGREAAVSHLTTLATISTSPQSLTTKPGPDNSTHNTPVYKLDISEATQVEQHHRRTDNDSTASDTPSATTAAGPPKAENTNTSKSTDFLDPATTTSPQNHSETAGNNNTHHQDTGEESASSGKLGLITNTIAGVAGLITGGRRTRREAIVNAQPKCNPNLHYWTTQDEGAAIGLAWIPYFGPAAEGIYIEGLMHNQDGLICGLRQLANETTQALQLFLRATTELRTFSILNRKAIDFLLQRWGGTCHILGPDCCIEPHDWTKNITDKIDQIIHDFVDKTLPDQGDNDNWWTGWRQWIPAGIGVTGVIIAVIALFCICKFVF
As to the kind of experiment: indirect ELISA, […] (1:300) […].

B1: S37-3 (antibody, V domains shown)
VH: EVQLQQSGPELVKPGASVKISCKASGYSFTGYFMNWVKQSHGKSLEWIGRINPYNGDTFYNQKFKGKATLTVDKSSSTAHMELLSLTSEDSAVYYCGRGLRAFLDYWGQGTTLTVSS
VL: DIVLTQSPATLSVTPGDRVSLSCRASQSISNYLHWYQQKSHESPRLLIKYASQSISGIPSRFSGSGSGTDFTLSINSVETEDFGMYFCQQSNSWPHTFGGGTKLEIK
notes: also called 单克隆抗体S37-3; S37-3上清
Take B1: the binding result is “binds”.
